Test results as given in patent US20250313644A1 (FUTUREGEN BIOPHARMACEUTICAL BEIJING, published 2025).

What was measured:
human TL1A (HuTL1A) [1] = biological target: T1, human TL1A (HuTL1A) (human, UniProt O95150 57-251, limits assumed, biotin-labelled in some assays (site not stated)); assay: cell-based or functional assay
T1 sequence: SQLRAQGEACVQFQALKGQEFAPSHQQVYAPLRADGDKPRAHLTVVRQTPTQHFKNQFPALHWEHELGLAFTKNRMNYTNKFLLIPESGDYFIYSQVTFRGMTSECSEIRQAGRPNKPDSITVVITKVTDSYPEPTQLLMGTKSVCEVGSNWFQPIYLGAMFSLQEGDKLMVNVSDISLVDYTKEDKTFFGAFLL

LT-α [2] = biological target: T2, LT-α (UniProt P01374 35-205); assay: ELISA, coated LT-α, Ab 0.391 nM
T2 sequence (looked up): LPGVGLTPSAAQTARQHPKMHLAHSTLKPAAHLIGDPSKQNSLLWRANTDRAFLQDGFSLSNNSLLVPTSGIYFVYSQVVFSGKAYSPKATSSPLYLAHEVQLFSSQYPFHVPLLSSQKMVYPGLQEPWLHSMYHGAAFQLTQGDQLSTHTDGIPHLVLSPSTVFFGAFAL
Protocol: (§1) In this experiment, ELISA was used to assess the binding ability of monoclonal antibodies to TL1A homologous molecules. Representative members of the TNF ligand superfamily, TNFα, LT-α, LIGHT and FASL, were selected for binding testing. 1 μg/mL of TNFα, LT-α, LIGHT or FASL was coated in a microplate with a carbonate buffer solution at pH=9.6, 100 μL per well, and the microplate was incubated at 4° C. overnight. The microplate was then washed 5 times with PBST, blocked with 300 μL/well of PBS containing 1% BSA, and was incubated at room temperature for 1 hour. After washing 5 times with PBST, about 100 μL each of the M701 monoclonal antibodies and the control antibodies were added to each well, and were incubated at room temperature for 1 hour. After washing 5 times with PBST, 100 μL of HRP-anti-human Fc (Sino Biological) was added to each well, and was incubated at room temperature for 1 hour. After washing 5 times with PBST, 100 μL of colorimetric substrate TMB was added to each well, and color was developed at room temperature for 10 minutes, followed by addition of 1M sulfuric acid to terminate the reaction. OD450 nm was recorded on a microplate reader.

FASL [3] = biological target: T3, FASL (UniProt P48023 134-281, limits assumed); assay: ELISA, coated FASL, Ab 25 nM
T3 sequence (looked up): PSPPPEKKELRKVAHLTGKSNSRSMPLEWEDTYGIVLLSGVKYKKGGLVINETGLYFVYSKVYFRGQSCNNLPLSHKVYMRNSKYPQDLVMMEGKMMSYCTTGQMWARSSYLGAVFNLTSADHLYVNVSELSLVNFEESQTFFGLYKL
Protocol: as §1

LT-α [4] = biological target: T2, LT-α; assay: ELISA, coated LT-α
Protocol: as §1

human TL1A (HuTL1A) [5] = biological target: T1, human TL1A (HuTL1A); assay: DLS, antigen and antibody mixed in equal moles
Protocol: 60 μM antigen and antibody was mixed in equal moles, incubated at room temperature for 30 minutes, and then the molecular size was detected using UNCLE or SEC.

TNFα [6] = biological target: T4, TNFα (UniProt P01375 77-233); assay: ELISA, coated TNF-α, Ab 6.25 nM
Protocol: as §1

FASL [7] = biological target: T3, FASL; assay: ELISA, coated FASL, Ab 0.000 nM (blank)
Protocol: as §1

LT-α [8] = biological target: T2, LT-α; assay: ELISA, coated LT-α, Ab 6.25 nM
Protocol: as §1

TNFα [9] = biological target: T4, TNFα; assay: ELISA, coated TNF-α, Ab 0.391 nM
Protocol: as §1

TNFα [10] = biological target: T4, TNFα; assay: ELISA, coated TNF-α, Ab 0.000 nM (blank)
Protocol: as §1

FASL [11] = biological target: T3, FASL; assay: ELISA, coated FASL, Ab 6.25 nM
Protocol: as §1

LIGHT [12] = biological target: T5, LIGHT (UniProt O43557 74-240, limits assumed); assay: ELISA, coated LIGHT, Ab 0.391 nM
Protocol: as §1

LIGHT [13] = biological target: T5, LIGHT; assay: ELISA, coated LIGHT, Ab 25 nM
Protocol: as §1

LT-α [14] = biological target: T2, LT-α; assay: ELISA, coated LT-α, Ab 100 nM
Protocol: as §1

human TL1A (HuTL1A) [15] = biological target: T1, human TL1A (HuTL1A); assay: cell-based or functional assay; remark: listed apart in the source
TNFα [16] = biological target: T4, TNFα; assay: ELISA, coated TNF-α, Ab 25 nM
Protocol: as §1

FASL [17] = biological target: T3, FASL; assay: ELISA, coated FASL, Ab 100 nM
Protocol: as §1

FASL [18] = biological target: T3, FASL; assay: ELISA, coated FASL
Protocol: as §1

LIGHT [19] = biological target: T5, LIGHT; assay: ELISA, coated LIGHT, Ab 6.25 nM
Protocol: as §1

LIGHT [20] = biological target: T5, LIGHT; assay: ELISA, coated LIGHT
Protocol: as §1

LT-α [21] = biological target: T2, LT-α; assay: ELISA, coated LT-α, Ab 1.563 nM
Protocol: as §1

TNFα [22] = biological target: T4, TNFα; assay: ELISA, coated TNF-α, Ab 100 nM
Protocol: as §1

LIGHT [23] = biological target: T5, LIGHT; assay: ELISA, coated LIGHT, Ab 1.563 nM
Protocol: as §1

LT-α [24] = biological target: T2, LT-α; assay: ELISA, coated LT-α, Ab 0.000 nM (blank)
Protocol: as §1

LIGHT [25] = biological target: T5, LIGHT; assay: ELISA, coated LIGHT, Ab 0.000 nM (blank)
Protocol: as §1

FASL [26] = biological target: T3, FASL; assay: ELISA, coated FASL, Ab 0.391 nM
Protocol: as §1

TNFα [27] = biological target: T4, TNFα; assay: ELISA, coated TNF-α, Ab 1.563 nM
Protocol: as §1

TNFα [28] = biological target: T4, TNFα; assay: ELISA, coated TNFα
Protocol: as §1

LT-α [29] = biological target: T2, LT-α; assay: ELISA, coated LT-α, Ab 25 nM
Protocol: as §1

FASL [30] = biological target: T3, FASL; assay: ELISA, coated FASL, Ab 1.563 nM
Protocol: as §1

LIGHT [31] = biological target: T5, LIGHT; assay: ELISA, coated LIGHT, Ab 100 nM
Protocol: as §1

T5 sequence (O43557 74-240 limits assumed): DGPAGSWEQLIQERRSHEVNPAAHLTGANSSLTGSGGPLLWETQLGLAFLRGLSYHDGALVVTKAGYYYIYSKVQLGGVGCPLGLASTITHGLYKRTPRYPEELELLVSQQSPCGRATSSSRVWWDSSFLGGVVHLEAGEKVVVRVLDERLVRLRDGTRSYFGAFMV
T4 sequence (P01375 77-233 limits assumed): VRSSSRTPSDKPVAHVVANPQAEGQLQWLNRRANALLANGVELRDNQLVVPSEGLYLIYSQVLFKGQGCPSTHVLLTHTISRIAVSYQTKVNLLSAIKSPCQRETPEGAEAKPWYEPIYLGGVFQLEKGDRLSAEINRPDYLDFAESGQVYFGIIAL

B1: M701-4019 (antibody, human IgG1, kappa, L234A L235A, V domains shown)
VH: ELQLQESGPGLVKPSETLSLTCAVSGVSFTDYHWAWIRQPPGKGLEWIGDINHRGHTNYNPSLKSRVTVSIDTSKNQFSLKLSSVTAADTAVYYCARDYPNFIYDYWGQGTLVTVSS
VL: DIQLTQSPGTLSLSPGERATLSCRASQSVSNYLAWYQQKPGQAPRLLIYGASRRATGIPARFSGSGSGTDFTLTISSLEPEDFAVYYCQQYAASPLTFGQGTKVEIKR
notes: Fc-engineered IgG1
Human TL1A (HuTL1A) [1]
  IC50 (read off the curve); IFN-γ of human T cells with IL-12, IL-18 and exogenous human TL1A: ~0.2 nM
LT-α [2]
  OD450 nm: 0.0572
FASL [3]
  OD450 nm: 0.0612
LT-α [4]
  binding result: no binding (tested: 100 nM)
Human TL1A (HuTL1A) [5]
  Ave Z-dia (nm) of the antigen-antibody complex: 18.5 nm
TNFα [6]
  OD450 nm: 0.0591
FASL [7]
  OD450 nm: 0.0602
LT-α [8]
  OD450 nm: 0.0566
TNFα [9]
  OD450 nm: 0.0567
TNFα [10]
  OD450 nm: 0.0748
FASL [11]
  OD450 nm: 0.0529
LIGHT [12]
  OD450 nm: 0.0528
LIGHT [13]
  OD450 nm: 0.061
LT-α [14]
  OD450 nm: 0.067
Human TL1A (HuTL1A) [15]
  IC50 (read off the curve); SEAP reporter in HEK293T/DR3-NFκB cells with soluble TL1A, OD655: ~1 nM
TNFα [16]
  OD450 nm: 0.066
FASL [17]
  OD450 nm: 0.0886
FASL [18]
  binding result: no binding (tested: 100 nM)
LIGHT [19]
  OD450 nm: 0.0572
LIGHT [20]
  binding result: no binding (tested: 100 nM)
LT-α [21]
  OD450 nm: 0.0602
TNFα [22]
  OD450 nm: 0.105
LIGHT [23]
  OD450 nm: 0.0539
LT-α [24]
  OD450 nm: 0.0648
LIGHT [25]
  OD450 nm: 0.0563
FASL [26]
  OD450 nm: 0.0506
TNFα [27]
  OD450 nm: 0.057
TNFα [28]
  binding result: no binding (tested: 100 nM)
LT-α [29]
  OD450 nm: 0.0627
FASL [30]
  OD450 nm: 0.0514
LIGHT [31]
  OD450 nm: 0.0942
